Publication PMC5181682 (Nucleic Acids Research, 2016)
Each block holds one binder with its values, some of them ahead of it.

B1: TIP (Thermococcales inhibitor of PCNA), full length (natural protein, T. kodakarensis, UniProt Q5JH72 1-64, looked up)
chain: MDRKLDEFIGDATPKKVSKEKPVRRKKRLKPTSLDSFLPEEHINYFRDLRIGSKKIRNAKIEEL
B2: PCNA:TIP peptide complex (1:1) (complex)
chain: MPFEVVFDGAKEFADLIATASNLIDEAAFKFTEEGISMRAMDPSRVVLIDLNLPESIFSKYEVEEPETIGINMDQFKKILKRGKAKDTLILRKGDENFLEITFEGTAKRTFRLPLIDVEELELELPELPFTAKVVLLGEVLKEGIKDASLVSDAIKFIAKENEFTMKAEGETNEVEIRLTLEDEGLLDLEVEEETKSAYGIRYLSDMVKGIGKADEVILRFGNEMPLQMEYMIRDEGRLTFLLAPRVEE
peptide: RLKPTSLDSFLPEEHINYFRDLRIGSKKIRNAKIEEL
B3: Proliferating cell nuclear antigen (PCNA1) of Thermococcus kodakarensis (natural protein)
chain: B2 chain

Experiments:
[1] = target: B3; experiment: crystal structure; PCNA with FEN-1 peptide, ratio about 1:5, sitting drop; well 2.8 M ammonium sulfate, 100 mM citric acid pH 5.3, 10% PEG 4000; 2.0 Å; conditions: both partners purified
[2] = target: B3; experiment: crystal structure; PCNA with full length TIP, ratio about 1:1.2, hanging drop; well 1.2 M ammonium sulfate, 50 mM sodium citrate pH 4.0, 10% glycerol; 2.8 Å; conditions: both partners purified
[3] = target: the molecule itself; experiment: SAXS; PCNA:TIP peptide complex at 6.4, 4.8, 4.1 and 2.1 mg/ml, purified by SEC, 50 mM Tris-HCl pH 7.3, 200 mM NaCl, room temperature; fit to a two-member ensemble (1:1 Model A and 2:2 Model C); 2:2 form to 1:1 complexes
[4] = target: B3; experiment: crystal structure; PCNA with TIP peptide (residues 28-64); same space group as PCNA:TIP; 3.4 Å; conditions: both partners purified
[5] = target: the molecule itself; experiment: SAXS; free PCNA in 50 mM Tris-HCl pH 7.3, 200 mM NaCl, room temperature; fit to the crystal structure PDB 3LX1

binding result [1]: binds
Binder: KQRTLESWFGR (peptide, UniProt Q5JGN0 330-340, looked up) [flap endonuclease 1 (FEN-1) peptide (residues 330-340)]

Binder: B1
binding result [2]: binds

Binder: B2
Kd [3]: ~100 µM
stoichiometry N [3]: 2

binding result [4]: binds
Binder: RLKPTSLDSFLPEEHINYFRDLRIGSKKIRNAKIEEL (peptide, UniProt Q5JH72 28-64, looked up) [TIP peptide (residues 28-64)]

Binder: B3
stoichiometry N [5]: 3
